# T1: recombinant human CDH17 (R&D systems) (human, UniProt Q12864 23-787)
# T1 construct: Bought recombinant protein coated on the ELISA plate; also called human Cadherin-17
# T1 sequence: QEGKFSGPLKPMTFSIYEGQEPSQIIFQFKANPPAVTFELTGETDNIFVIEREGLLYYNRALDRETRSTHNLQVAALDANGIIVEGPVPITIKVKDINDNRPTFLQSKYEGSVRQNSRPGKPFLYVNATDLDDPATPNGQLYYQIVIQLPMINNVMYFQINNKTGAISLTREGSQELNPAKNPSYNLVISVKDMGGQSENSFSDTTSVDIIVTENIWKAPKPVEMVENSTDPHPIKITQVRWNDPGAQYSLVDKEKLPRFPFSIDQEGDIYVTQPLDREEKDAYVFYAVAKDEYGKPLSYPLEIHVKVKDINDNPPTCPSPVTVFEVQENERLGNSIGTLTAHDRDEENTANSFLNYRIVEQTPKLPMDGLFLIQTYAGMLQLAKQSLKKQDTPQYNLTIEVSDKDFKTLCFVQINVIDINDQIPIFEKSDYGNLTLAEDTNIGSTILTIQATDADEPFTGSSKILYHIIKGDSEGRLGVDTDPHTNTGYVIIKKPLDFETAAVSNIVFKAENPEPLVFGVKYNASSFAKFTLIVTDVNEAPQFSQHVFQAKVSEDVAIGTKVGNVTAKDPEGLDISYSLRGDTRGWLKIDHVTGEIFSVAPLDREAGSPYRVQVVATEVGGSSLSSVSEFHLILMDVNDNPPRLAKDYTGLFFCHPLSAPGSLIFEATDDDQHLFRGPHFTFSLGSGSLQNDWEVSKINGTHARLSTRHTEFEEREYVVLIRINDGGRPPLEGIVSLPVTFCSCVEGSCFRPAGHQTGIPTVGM
# T2: human CDH17 on AGS gastric cancer cells and AsPC-1 pancreatic cancer cells (human, UniProt Q12864 23-832)
# T2 construct: Native CDH17 on the surface of cancer cell lines; also called CDH17 expressing AGS cells; CDH17 expressing AsPC-1 pancreatic cancer cells
# T2 sequence: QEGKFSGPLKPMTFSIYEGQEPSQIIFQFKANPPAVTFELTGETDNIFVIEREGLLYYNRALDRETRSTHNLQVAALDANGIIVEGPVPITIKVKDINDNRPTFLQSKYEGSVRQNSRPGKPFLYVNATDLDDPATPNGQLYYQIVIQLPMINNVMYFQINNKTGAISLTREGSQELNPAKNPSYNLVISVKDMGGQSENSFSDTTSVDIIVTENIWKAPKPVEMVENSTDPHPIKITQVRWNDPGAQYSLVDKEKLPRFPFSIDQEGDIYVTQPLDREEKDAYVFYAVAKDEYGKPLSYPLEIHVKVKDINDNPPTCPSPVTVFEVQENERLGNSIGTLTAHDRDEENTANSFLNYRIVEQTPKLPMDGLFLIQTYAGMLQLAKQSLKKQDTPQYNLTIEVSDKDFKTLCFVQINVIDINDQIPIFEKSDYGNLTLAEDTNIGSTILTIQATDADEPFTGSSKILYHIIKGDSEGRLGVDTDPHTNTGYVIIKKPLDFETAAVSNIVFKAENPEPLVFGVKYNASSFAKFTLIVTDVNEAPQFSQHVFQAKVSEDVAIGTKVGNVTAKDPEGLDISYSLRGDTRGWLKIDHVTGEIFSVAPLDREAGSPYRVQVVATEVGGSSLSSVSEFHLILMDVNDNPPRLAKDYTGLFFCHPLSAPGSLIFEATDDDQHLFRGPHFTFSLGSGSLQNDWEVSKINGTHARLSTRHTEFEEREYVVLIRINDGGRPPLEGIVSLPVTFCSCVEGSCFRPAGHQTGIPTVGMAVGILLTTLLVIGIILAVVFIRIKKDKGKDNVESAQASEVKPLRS
# Biological target: T1, recombinant human CDH17 (R&D systems)
# Assay: ELISA, plate coated with recombinant human CDH17
# Method: ELISA-based binding assay was employed to evaluate the binding to CDH17 by anti-CDH17 antibodies. In this assay, 100 μL of […] recombinant human CDH17 (R&D systems) was coated on an ELISA plate. Increasing concentrations of masked and reference mAbs were applied on the plate and their binding to the recombinant human proteins were detected by HRP-conjugated anti-human secondary antibody. […] The expressed anti-CDH17 mAbs had potent binding to CDH17. The anti-CDH17 were tested for binding to AGS gastric cancer cells and AsPC-1 pancreatic cancer cells.
row,binding result,Binder
1,binds,"CDH17 v1 (antibody, human IgG1, V domains shown, described as human IgG1 monoclonal antibody; also called anti-CDH17 v1) VH: EVQLQQSVAELVKPGASVKMSCKVSGYTLTDHTIHWMKQRPEQGLEWIGYIYPRDGITGYNEKFKGKATLTADTSSSTAYMQLNSLTSEDSAVYFCARWGYSYRNYAYYYDYWGQGTTLTVSS VL: DIVMSQSPSSLAVSVGEKVTMSCKSSQSLLHSSNQKNYLAWYQQKPGQSPKVLIYWASTRESGVPDRFTGSGSGTDFTLTITSVKSEDLAVYYCQQYYSYPWTFGGGTRLEIK"

# Biological target: T2, human CDH17 on AGS gastric cancer cells …
# Assay: flow cytometry on AGS and AsPC-1 cells
row,Binder,binding result
1,"VHO v379 (VHH, Variable-heavy-only (VHO) single domain; also called TS00379) VHH: EVQLLESGGGLVQPGGSLRLSCAASGFTFSSYGMSWVRQAPGKGLEWVSNINQSGSSTYYADSVKGRFTISRDNSKNTLYLQMNSLRAEDTAVYYCAKHSHWAHRVLQSFDYWGQGTLVTVSS",binds
2,"VHO v357 (VHH, Variable-heavy-only (VHO) single domain; also called TS00357) VHH: EVQLLESGGGLVQPGGSLRLSCAASGFTFSDYWMSWVRQAPGKGLEWVSNISSSGSSTYYADSVKGRFTISRDNSKNTLYLQMNSLRAEDTAVYYCAKTSDWLSGKIDEHFDYWGQGTLVTVSS",binds
3,"VHO v369 (VHH, Variable-heavy-only (VHO) single domain; also called TS00369) VHH: EVQLLESGGGLVQPGGSLRLSCAASGFTFSDYWMSWVRQAPGKGLEWVSNISGSGSSTYYADSVKGRFTISRDNSKNTLYLQMNSLRAEDTAVYYCAKTSQWLARERSSEFDYWGQGTLVTVSS",binds
4,"VHO v370 (VHH, Variable-heavy-only (VHO) single domain; also called TS00370) VHH: EVQLLESGGGLVQPGGSLRLSCAASGFTFSNYWMSWVRQAPGKGLEWVSNISSDGGSTYYADSVKGRFTISRDNSKNTLYLQMNSLRAEDTAVYYCAKTTTWLTYRQGHGFDYWGQGTLVTVSS",binds
5,"VHO v347 (VHH, Variable-heavy-only (VHO) single domain; also called TS00347) VHH: EVQLLESGGGLVQPGGSLRLSCAASGFTFSTYAMSWVRQAPGKGLEWVSNISGSGGSTYYADSVKGRFTISRDNSKNTLYLQMNSLRAEDTAVYYCAKEQQWVPGFGFDYWGQGTLVTVSS",binds
6,"VHO v351 (VHH, Variable-heavy-only (VHO) single domain; also called TS00351) VHH: EVQLLESGGGLVQPGGSLRLSCAASGFTFSSYAMSWVRQAPGKGLEWVSNISGSGSSTYYADSVKGRFTISRDNSKNTLYLQMNSLRAEDTAVYYCAKESQHSPGWGFDYWGQGTLVTVSS",binds
7,"VHO v377 (VHH, VHO single domain; also called TS00377) VHH: EVQLLESGGGLVQPGGSLRLSCAASGFTFSDYWMSWVRQAPGKGLEWVSAISGDGSSTYYADSVKGRFTISRDNSKNTLYLQMNSLRAEDTAVYYCAKEDWRPGFDYWGQGTLVTVSS",binds
8,"VHO v372 (VHH, Variable-heavy-only (VHO) single domain; also called TS00372) VHH: EVQLLESGGGLVQPGGSLRLSCAASGFTFSSYWMSWVRQAPGKGLEWVSGINYSGSSTYYADSVKGRFTISRDNSKNTLYLQMNSLRAEDTAVYYCAKWSWLGSDKADFDYWGQGTLVTVSS",binds
9,"VHO v342 (VHH, Variable-heavy-only (VHO) single domain; also called TS00342) VHH: EVQLLESGGGLVQPGGSLRLSCAASGFTFSDYWMSWVRQAPGKGLEWVSNISQSGGSTYYADSVKGRFTISRDNSKNTLYLQMNSLRAEDTAVYYCAKDTPGPRWDFDYWGQGTLVTVSS",binds
10,"VHO v376 (VHH, Variable-heavy-only (VHO) single domain; also called TS00376) VHH: EVQLLESGGGLVQPGGSLRLSCAASGFTFSDYWMSWVRQAPGKGLEWVSGINSSGGSTYYADSVKGRFTISRDNSKNTLYLQMNSLRAEDTAVYYCAKWQFVTQPGHKAFDYWGQGTLVTVSS",binds
11,"VHO v355 (VHH, Variable-heavy-only (VHO) single domain; also called TS00355) VHH: EVQLLESGGGLVQPGGSLRLSCAASGFTFSDYWMSWVRQAPGKGLEWVSAISGDGSSTYYADSVKGRFTISRDNSKNTLYLQMNSLRAEDTAVYYCAKETWGTYDFDYWGQGTLVTVSS",binds

# Other lines, results leading:
row,binding result,Binder
1,binds,"VHO v362 (VHH, Variable-heavy-only (VHO) single domain; also called TS00362) VHH: EVQLLESGGGLVQPGGSLRLSCAASGFTFSDYWMSWVRQAPGKGLEWVSNISSDGGSTYYADSVKGRFTISRDNSKNTLYLQMNSLRAEDTAVYYCAKTTTWLLSQHDKTSFDYWGQGTLVTVSS"
2,binds,"VHO v371 (VHH, Variable-heavy-only (VHO) single domain; also called TS00371) VHH: EVQLLESGGGLVQPGGSLRLSCAASGFTFSNYWMSWVRQAPGKGLEWVSGINGSGGSTYYADSVKGRFTISRDNSKNTLYLQMNSLRAEDTAVYYCAKWHWYGQEKKAFDYWGQGTLVTVSS"
3,binds,"VHO v365 (VHH, Variable-heavy-only (VHO) single domain; also called TS00365) VHH: EVQLLESGGGLVQPGGSLRLSCAASGFTFSDYWMSWVRQAPGKGLEWVSNINQDGGSTYYADSVKGRFTISRDNSKNTLYLQMNSLRAEDTAVYYCAKTSDWLLVQFDYWGQGTLVTVSS"
4,binds,"VHO v341 (VHH, Variable-heavy-only (VHO) single domain; also called TS00341) VHH: EVQLLESGGGLVQPGGSLRLSCAASGFTFSTYWMSWVRQAPGKGLEWVSVINQDGSSTYYADSVKGRFTISRDNSKNTLYLQMNSLRAEDTAVYYCAKDELKSEWDFDYWGQGTLVTVSS"
5,binds,"VHO v346 (VHH, Variable-heavy-only (VHO) single domain; also called TS00346) VHH: EVQLLESGGGLVQPGGSLRLSCAASGFTFSDYWMSWVRQAPGKGLEWVSAIKQDGGSTYYADSVKGRFTISRDNSKNTLYLQMNSLRAEDTAVYYCAKETWEAHWDFDYWGQGTLVTVSS"
6,binds,"VHO v374 (VHH, VHO single domain; also called TS00374) VHH: EVQLLESGGGLVQPGGSLRLSCAASGFTFSTYWMSWVRQAPGKGLEWVSGINQDGSSTYYADSVKGRFTISRDNSKNTLYLQMNSLRAEDTAVYYCAKWHWAGSSQQFDYWGQGTLVTVSS"
7,binds,"VHO v380 (VHH, Variable-heavy-only (VHO) single domain; also called TS00380) VHH: EVQLLESGGGLVQPGGSLRLSCAASGFTFSNYWMSWVRQAPGKGLEWVSGISQSGSSTYYADSVKGRFTISRDNSKNTLYLQMNSLRAEDTAVYYCAKWQFASWRGDKDFDYWGQGTLVTVSS"
8,binds,"VHO v352 (VHH, Variable-heavy-only (VHO) single domain; also called TS00352) VHH: EVQLLESGGGLVQPGGSLRLSCAASGFTFSSYWMHWVRQAPGKGLEWVSAIWSSGGSTYYADSVKGRFTISRDNSKNTLYLQMNSLRAEDTAVYYCAKSKSLHEDFDYWGQGTLVTVSS"
9,binds,"VHO v349 (VHH, Variable-heavy-only (VHO) single domain; also called TS00349) VHH: EVQLLESGGGLVQPGGSLRLSCAASGFTFSDYWMHWVRQAPGKGLEWVSAIWSSGGSTYYADSVKGRFTISRDNSKNTLYLQMNSLRAEDTAVYYCAKSPTLYDDFDYWGQGTLVTVSS"
10,binds,"VHO v345 (VHH, Variable-heavy-only (VHO) single domain; also called TS00345) VHH: EVQLLESGGGLVQPGGSLRLSCAASGFTFSNYWMSWVRQAPGKGLEWVSAIKQDGSSTYYADSVKGRFTISRDNSKNTLYLQMNSLRAEDTAVYYCAKEEWRDYDFDYWGQGTLVTVSS"
11,binds,"VHO v343 (VHH, Variable-heavy-only (VHO) single domain; also called TS00343) VHH: EVQLLESGGGLVQPGGSLRLSCAASGFTFSDYWMSWVRQAPGKGLEWVSAIKGDGSSTYYADSVKGRFTISRDNSKNTLYLQMNSLRAEDTAVYYCAKEEWRPYSFDYWGQGTLVTVSS"

# — patent US20250270314A1 (TAVOTEK BIOTECH SUZHOU, published 2025)
